For the assay, the target named is typhoid toxin B subunit PltB (Salmonella Typhi) (UniProt Q8Z6A3). Nature of the assay: crystal structure.

As usually defined, the stoichiometry N is a count of units in the complex or per binding partner. “typhoid toxin B subunit PltB (from UniProt Q8Z6A3 1-137) (natural protein)”: the stoichiometry N was found to be 5.

The record behind these values is paper PMC4258231.
